Assays:
[1] = target: hCD37-LEL (Large Extracellular Loop; amino acids 107 to 242 of human CD37 with a 6xHis-tag) (human); experiment: ELISA, native hCD37-LEL coated on the plate, antibody at 2.5 µg/mL
[2] = target: hCD37-LEL (Large Extracellular Loop; amino acids 107 to 242 of human CD37 with a 6xHis-tag) (human); experiment: ELISA, denatured-reduced hCD37-LEL coated on the plate, antibody at 10 µg/mL
[3] = target: hCD37-Fc-LAGA (amino acids 107 to 235 of human CD37 fused to human IgG1 Fc-domain) (human); experiment: ELISA, native hCD37-Fc-LAGA coated on the plate, antibody at 10 µg/mL
Sequence of hCD37-Fc-LAGA (amino acids 107 to 235 of human CD37 fused to human IgG1 Fc-domain) (human) (chain, as listed by the source limits assumed): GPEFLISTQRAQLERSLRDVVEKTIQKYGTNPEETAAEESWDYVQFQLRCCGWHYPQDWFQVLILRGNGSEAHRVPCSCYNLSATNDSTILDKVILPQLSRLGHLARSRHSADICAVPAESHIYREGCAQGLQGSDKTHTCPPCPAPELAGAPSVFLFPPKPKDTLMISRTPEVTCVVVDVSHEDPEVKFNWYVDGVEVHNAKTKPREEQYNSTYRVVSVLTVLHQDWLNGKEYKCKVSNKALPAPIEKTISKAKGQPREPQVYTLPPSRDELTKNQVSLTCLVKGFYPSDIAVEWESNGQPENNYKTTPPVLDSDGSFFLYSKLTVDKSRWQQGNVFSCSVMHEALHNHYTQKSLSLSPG

[4] = target: hCD37-Fc-LAGA (amino acids 107 to 235 of human CD37 fused to human IgG1 Fc-domain) (human); experiment: ELISA, native hCD37-Fc-LAGA coated on the plate, antibody at 2.5 µg/mL
[5] = target: hCD37-Fc-LAGA (amino acids 107 to 235 of human CD37 fused to human IgG1 Fc-domain) (human); experiment: ELISA, native hCD37-Fc-LAGA coated on the plate, purified antibody titrated (left panel)
[6] = target: hCD37-LEL (Large Extracellular Loop; amino acids 107 to 242 of human CD37 with a 6xHis-tag) (human); experiment: ELISA, denatured-reduced hCD37-LEL coated on the plate, antibody at 2.5 µg/mL
[7] = target: hCD37-ECD-Fc (amino acids 107 to 235 of human CD37 fused to murine IgG2a Fc-domain) (human); experiment: ELISA, denatured hCD37-ECD-Fc coated on the plate, antibody at 5 µg/mL
Sequence of hCD37-ECD-Fc (amino acids 107 to 235 of human CD37 fused to murine IgG2a Fc-domain) (human) (chain, as listed by the source limits assumed): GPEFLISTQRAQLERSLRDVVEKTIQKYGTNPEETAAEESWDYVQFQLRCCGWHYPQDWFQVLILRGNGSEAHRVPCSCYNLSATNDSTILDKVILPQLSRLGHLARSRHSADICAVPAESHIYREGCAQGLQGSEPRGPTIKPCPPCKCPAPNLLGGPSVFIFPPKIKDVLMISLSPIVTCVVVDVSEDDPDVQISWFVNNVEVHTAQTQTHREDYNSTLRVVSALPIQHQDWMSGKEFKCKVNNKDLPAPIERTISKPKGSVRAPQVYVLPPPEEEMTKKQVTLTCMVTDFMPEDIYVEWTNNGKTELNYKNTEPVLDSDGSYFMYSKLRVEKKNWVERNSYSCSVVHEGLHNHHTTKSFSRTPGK

[8] = target: hCD37-Fc-LAGA (amino acids 107 to 235 of human CD37 fused to human IgG1 Fc-domain) (human); experiment: ELISA, native hCD37-Fc-LAGA coated on the plate, antibody at 10 µg/mL; remark: listed apart in the source
[9] = target: hCD37-LEL (Large Extracellular Loop; amino acids 107 to 242 of human CD37 with a 6xHis-tag) (human); experiment: ELISA, denatured-reduced hCD37-LEL coated on the plate, antibody at 5 µg/mL
[10] = target: hCD37-Fc-LAGA (amino acids 107 to 235 of human CD37 fused to human IgG1 Fc-domain) (human); experiment: ELISA, denatured-reduced hCD37-Fc-LAGA coated on the plate, antibody at 5 µg/mL
[11] = target: hCD37-LEL (Large Extracellular Loop; amino acids 107 to 242 of human CD37 with a 6xHis-tag) (human); experiment: ELISA, native hCD37-LEL coated on the plate, antibody at 5 µg/mL
[12] = target: hCD37-LEL (Large Extracellular Loop; amino acids 107 to 242 of human CD37 with a 6xHis-tag) (human); experiment: ELISA, native hCD37-LEL coated on the plate, antibody at 10 µg/mL
[13] = target: hCD37-Fc-LAGA (amino acids 107 to 235 of human CD37 fused to human IgG1 Fc-domain) (human); experiment: ELISA, native hCD37-Fc-LAGA coated on the plate, antibody at 5 µg/mL
[14] = target: hCD37-ECD-Fc (amino acids 107 to 235 of human CD37 fused to murine IgG2a Fc-domain) (human); experiment: ELISA, denatured hCD37-ECD-Fc coated on the plate, antibody at 10 µg/mL
[15] = target: hCD37-LEL (Large Extracellular Loop; amino acids 107 to 242 of human CD37 with a 6xHis-tag) (human); experiment: ELISA, native hCD37-LEL coated on the plate, antibody at 2.5 µg/mL; remark: listed apart in the source
[16] = target: hCD37-LEL (Large Extracellular Loop; amino acids 107 to 242 of human CD37 with a 6xHis-tag) (human); experiment: ELISA, native hCD37-LEL coated on the plate, antibody at 5 µg/mL; remark: listed apart in the source
[17] = target: hCD37-ECD-Fc (amino acids 107 to 235 of human CD37 fused to murine IgG2a Fc-domain) (human); experiment: ELISA, native hCD37-ECD-Fc coated on the plate, antibody at 10 µg/mL
[18] = target: hCD37-Fc-LAGA (amino acids 107 to 235 of human CD37 fused to human IgG1 Fc-domain) (human); experiment: ELISA, native hCD37-Fc-LAGA coated on the plate, antibody at 2.5 µg/mL; remark: listed apart in the source
[19] = target: hCD37-ECD-Fc (amino acids 107 to 235 of human CD37 fused to murine IgG2a Fc-domain) (human); experiment: ELISA, native hCD37-ECD-Fc coated on the plate, antibody at 2.5 µg/mL
[20] = target: hCD37-Fc-LAGA (amino acids 107 to 235 of human CD37 fused to human IgG1 Fc-domain) (human); experiment: ELISA, denatured-reduced hCD37-Fc-LAGA coated on the plate, antibody at 2.5 µg/mL
[21] = target: hCD37-LEL (Large Extracellular Loop; amino acids 107 to 242 of human CD37 with a 6xHis-tag) (human); experiment: ELISA, denatured hCD37-LEL coated on the plate, antibody at 2.5 µg/mL
[22] = target: hCD37-LEL (Large Extracellular Loop; amino acids 107 to 242 of human CD37 with a 6xHis-tag) (human); experiment: ELISA, denatured hCD37-LEL coated on the plate, antibody at 5 µg/mL
[23] = target: hCD37-Fc-LAGA (amino acids 107 to 235 of human CD37 fused to human IgG1 Fc-domain) (human); experiment: ELISA, denatured hCD37-Fc-LAGA coated on the plate, antibody at 2.5 µg/mL
[24] = target: hCD37-LEL (Large Extracellular Loop; amino acids 107 to 242 of human CD37 with a 6xHis-tag) (human); experiment: ELISA, denatured hCD37-LEL coated on the plate, antibody at 10 µg/mL
[25] = target: hCD37-LEL (Large Extracellular Loop; amino acids 107 to 242 of human CD37 with a 6xHis-tag) (human); experiment: ELISA, denatured hCD37-LEL coated on the plate, purified antibody titrated
[26] = target: hCD37-Fc-LAGA (amino acids 107 to 235 of human CD37 fused to human IgG1 Fc-domain) (human); experiment: ELISA, denatured hCD37-Fc-LAGA coated on the plate, antibody at 10 µg/mL
[27] = target: hCD37-Fc-LAGA (amino acids 107 to 235 of human CD37 fused to human IgG1 Fc-domain) (human); experiment: ELISA, denatured hCD37-Fc-LAGA coated on the plate, antibody at 5 µg/mL
[28] = target: hCD37-ECD-Fc (amino acids 107 to 235 of human CD37 fused to murine IgG2a Fc-domain) (human); experiment: ELISA, native hCD37-ECD-Fc coated on the plate, antibody at 5 µg/mL
[29] = target: hCD37-Fc-LAGA (amino acids 107 to 235 of human CD37 fused to human IgG1 Fc-domain) (human); experiment: ELISA, denatured-reduced hCD37-Fc-LAGA coated on the plate, antibody at 10 µg/mL
[30] = target: hCD37-LEL (Large Extracellular Loop; amino acids 107 to 242 of human CD37 with a 6xHis-tag) (human); experiment: ELISA, native hCD37-LEL coated on the plate, antibody at 10 µg/mL; remark: listed apart in the source
[31] = target: hCD37-Fc-LAGA (amino acids 107 to 235 of human CD37 fused to human IgG1 Fc-domain) (human); experiment: ELISA, native hCD37-Fc-LAGA coated on the plate, antibody at 5 µg/mL; remark: listed apart in the source
[32] = target: hCD37-ECD-Fc (amino acids 107 to 235 of human CD37 fused to murine IgG2a Fc-domain) (human); experiment: ELISA, denatured hCD37-ECD-Fc coated on the plate, antibody at 2.5 µg/mL

Sequence of hCD37-LEL (Large Extracellular Loop; amino acids 107 to 242 of human CD37 with a 6xHis-tag) (human) (chain, as listed by the source limits assumed): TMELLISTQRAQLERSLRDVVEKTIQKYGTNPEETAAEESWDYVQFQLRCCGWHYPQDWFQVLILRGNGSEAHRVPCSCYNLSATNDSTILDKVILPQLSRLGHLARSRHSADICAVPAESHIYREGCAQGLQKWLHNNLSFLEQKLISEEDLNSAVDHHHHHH

“NCL-CD37 mouse monoclonal anti-CD37 antibody (clone CT1, Leica Biosystems)” was tested. Which ELISA absorbance at 450 nm [1] did it give?
The ELISA absorbance at 450 nm was 3.

What about the ELISA absorbance at 450 nm [2] of the same substance?
The ELISA absorbance at 450 nm was 3.3.

And the ELISA absorbance at 450 nm [3]?
The ELISA absorbance at 450 nm was 2.8.

And the ELISA absorbance at 450 nm [4]?
Its ELISA absorbance at 450 nm is 2.4.

And the EC50 (read off the curve) [5]?
Its EC50 (read off the curve) is 3 nM.

What about the ELISA absorbance at 450 nm [6] of the same substance?
Its ELISA absorbance at 450 nm is 3.2.

And the ELISA absorbance at 450 nm [7]?
Its ELISA absorbance at 450 nm is 3.1.

What about the ELISA absorbance at 450 nm [8] of the same substance?
Its ELISA absorbance at 450 nm is 2.9.

What about the ELISA absorbance at 450 nm [9] of the same substance?
The ELISA absorbance at 450 nm was 3.2.

What about the ELISA absorbance at 450 nm [10] of the same substance?
Its ELISA absorbance at 450 nm is 3.2.

And the ELISA absorbance at 450 nm [11]?
Its ELISA absorbance at 450 nm is 3.

And the ELISA absorbance at 450 nm [12]?
Its ELISA absorbance at 450 nm is 2.7.

What about the ELISA absorbance at 450 nm [13] of the same substance?
The ELISA absorbance at 450 nm was 2.6.

What about the ELISA absorbance at 450 nm [14] of the same substance?
The ELISA absorbance at 450 nm was 3.1.

What about the ELISA absorbance at 450 nm [15] of the same substance?
The ELISA absorbance at 450 nm was 2.

And the ELISA absorbance at 450 nm [16]?
Its ELISA absorbance at 450 nm is 2.4.

What about the ELISA absorbance at 450 nm [17] of the same substance?
The ELISA absorbance at 450 nm was 2.7.

What about the ELISA absorbance at 450 nm [18] of the same substance?
Its ELISA absorbance at 450 nm is 2.1.

What about the ELISA absorbance at 450 nm [19] of the same substance?
Its ELISA absorbance at 450 nm is 2.2.

What about the ELISA absorbance at 450 nm [20] of the same substance?
Its ELISA absorbance at 450 nm is 3.2.

And the ELISA absorbance at 450 nm [21]?
Its ELISA absorbance at 450 nm is 1.8.

And the ELISA absorbance at 450 nm [22]?
The ELISA absorbance at 450 nm was 2.

And the ELISA absorbance at 450 nm [23]?
Its ELISA absorbance at 450 nm is 3.1.

And the ELISA absorbance at 450 nm [24]?
The ELISA absorbance at 450 nm was 2.8.

And the EC50 (read off the curve) [25]?
The EC50 (read off the curve) was 0.1 nM.

And the ELISA absorbance at 450 nm [26]?
The ELISA absorbance at 450 nm was 3.2.

And the ELISA absorbance at 450 nm [27]?
The ELISA absorbance at 450 nm was 3.1.

And the ELISA absorbance at 450 nm [28]?
The ELISA absorbance at 450 nm was 2.4.

What about the ELISA absorbance at 450 nm [29] of the same substance?
Its ELISA absorbance at 450 nm is 3.3.

And the ELISA absorbance at 450 nm [30]?
Its ELISA absorbance at 450 nm is 3.

What about the ELISA absorbance at 450 nm [31] of the same substance?
Its ELISA absorbance at 450 nm is 2.5.

What about the ELISA absorbance at 450 nm [32] of the same substance?
Its ELISA absorbance at 450 nm is 3.1.
